The nanobody polyreactivity screen of Harvey et al. (2022)

Assay: yeast display, Sf9 membrane polyspecificity reagent, FACS + sequencing; frameworks hold sequencing errors
In short: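 Galactose-induced (36–48 hours) yeast carrying a synthetic nanobody display library were exposed to 10% biotinylated, detergent-solubilized Sf9 membrane reagent at 4 °C for 1 hour. FACS followed streptavidin microbead enrichment, using low and high (top ~1%) gates for expression (anti-HA) and reagent binding (streptavidin). Colony PCR, MiSeq 2 × 250 sequencing and CDR-length filtering followed. Labels for polyreactivity reflect the gate of origin.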

| Sequence | polyreactivity (PSR sort gate) |
| --- | --- |
| QVQLVESGRRLVQAGGSLRLTCAASGRTFVTNAMGWYRQAPGKERELVAAISSKGGSTYYADSVKGRFTISRDNAKNTVYLQMNSLKPEDTAVYDCNAEGQPLYVSWHDHRYIYGFDYWGQGTQVTVSS | low polyreactivity |
| QVQLVESGGGLVQAGGSLRLSCAASGFIFGGYAMGWYRQAPGKERELVAAISWSGDNTYYADSVKGRFTISRDNAKNTVYLQMNSLKPEDTAVYYCAADSYGQEYDYWGQGTQVTVSS | low polyreactivity |
| QVQLVESGGGLVQAGGSLRLSCAASGITFPDYDMGWYRQAPGKERELVAAITYRSGSTYYADSVKGRFTISRDNAKNTVYLQMNSLKPEDTAVYYCAATVRGVGYRYYYWGQGTQVTVSS | high polyreactivity |
| QVQLVESGGGIVQAGGSLRLSWAASGRNFLDYTMGWYRQAHGKERELVAAIRTSAGSTYYADSVKGRFTISRDNAKNTVYLQMNILKPEYTAVYYCAAEYYVQYYYRYDYWGQGTQVTVSS | low polyreactivity |
| QVQLVESGGGLVQAGGSLRLSCAASGFTFSYNAMGWYRPAPGKERELVAVITKSGGSTYYADSVKGRFTISRDNAKNTVYLQMNSLKPEDTAVYYCNRQIKKLLTTHYYWGQGTQVTVSS | high polyreactivity |
| QVQLVESGGGLVQAGGSLRLSCAASGRIFSWYAMGWYRQAPGKERELVADITNGGSTYYADSVKGRFTISRDNAKNTVYLQMNSLKPEDTAVYYCAAAYIHRLGRVLPSVYSIGRDYWGQGTQVTVSS | low polyreactivity |
| QVQLVESGGGLVQAGGSLRLSCAASGSIFVRYAMGWYRQAPGKERELVASIRSRGDSTYYADSVKGRFTISRDNAKNTVYLQMNSLKPEDTAVYYCAARRYPPRMDYWGQGTQVTVSS | high polyreactivity |
| QVQLVESGGGLVQAGGSLRLSCAASGRTFSYNAMGWYRQAPGKERELVAAISWSDGSTYYADSVKGRFTISRDNAKNTVYLQMNSLKPEDTAVYYCAVESFYRHASLYDNWGQGTQVTVSS | high polyreactivity |
| QVQLVESGGGLVQAGGSLRLSCAASGITFSRNAMGWYRQAPGKERELVATITSGGSTNYADSVKGRFTISRDNAKNTVYLQMNSLKPEDTAVYYCNAVWNTFISGRSYDYWGQGTQVTVSS | low polyreactivity |
| QVQLVESGGGLVQAGGSLRLSCAASGRTFRRNAMGWYRQAPGKERELVAAISFSAGRTYYADSVKGRFTISRDNAKNTVYLQMNSLKPEDTAVYYCNALRQDTGHYPYDYWGQGTQVTVSS | low polyreactivity |
| QVQLVESGGGLVQAGGSLRLSCAASGITYTDYDLGCYRQAPGKERELVAAISNGGGSTYYADSVKGRFTISRDNAKNTVYLQMNSLKPEDTGVYYWAAERVPSWWVEWGVAQWDDYWGQGTQVTVSS | low polyreactivity |
| QVQLVESGGGLVQAGGSLRLSCAASGFTYGVYAMGWYRPAPGKERELVAAISRRGTSTYYADSVKGRFTISRDNAKNTVYLQMNSLKPEDTAVYFCNARRYQVTVDHWGQGTQVTVSS | high polyreactivity |
| QFQLVESGGGLVQAGGSLRLSCAASGSTFLSNAMGWYRQAPGKERELVAGIDYNDGSTYYADSVKGRFTISRDNAKNTVYLKMNRLKPADTAVYYCAARWVFRRYVICMDFWGQGTEVTVSS | low polyreactivity |
| QVQLVESGGGLVQSGGSLRLSCAASGSIFIGNTMGWYRQAPGKERELVATIRRSGSRTYYADSVKGRFTISRDNAKHTVYLQMNSLKPEDTAVYYCAAVRLRTSGYKTIYDYWGQGTQVTVSS | low polyreactivity |
| QVQLVESGGGLVQALGSLRLSCVASGSTYDAYDMGWYREAPGKERELVAAITSGGSTYYADSVKGRFTISRDNAKNTVYLQMNSLKPEDTAVYYCAASNQWSSTYLTYGFYYWGQGTQVTVSS | low polyreactivity |
| QVQLVESGGGLVQAGGSLRLSCAASGRTFWFYDMGWYRQAPGKEREFVASITSSGGSTYYADSVKGRFTISRDIAKNTVYLQMNSLKPEDTAVYYCAASFYWTTRYSREYDYWGQGTQVTVSS | high polyreactivity |
| QVQLVESGGGLVQAGGSLRLSCAASGFTFWDYTMGWYRQAPAKERELVAAINRGGNTYYADSVKGRFTISRDNAKNTVYLQMNSLKPEDSADYYCAARRRSRQYRYDYWGQGTQVTVSS | high polyreactivity |
| QVQLVESGGGLVQAGGSLRLSCAASGRIFQRNTMGWYRQAPGKERELVAAITWNGGSTYYADSVKGRFTISRDNAKNTVFLQMNSMKPEDTAVDYCATAYRYSVHKALGFNYWGQGTQVTVSS | high polyreactivity |
| QVQLVESGGGLVQAGGSLRLSCAASGSIFNYYTMGWYRQAPGKRELVAAITWSGDSTYYADSVKGRFTISRDNAKNTVYLQMNSLKPEDTAVYYCAAAQARRYYWGQGTQVTVSS | high polyreactivity |
| QVQLVESGGGLVQAGGSLRLSCAASGSILTPYAMGWYRQAPGKERELVAAISWGDGSTYYADSVKGRFTISRDNAKNTVYLQMNSLKPEDTAVYYCAAVSYYGVDQYRITVYTYEYWGQGTQVTVSS | low polyreactivity |

| Sequence | polyreactivity (PSR sort gate) |
| --- | --- |
| QVQLVESGGGLVQAGGSLRLSCAASGRIFEVYAMGWYRQAPGKERELVARISDGGGSTYYADSVKGRFTISRDNAKNTVYLQMNSLKPEDTAVYYCAAGGDLRLDRRFAFVSRGDYWGQGTQVTVSS | low polyreactivity |
| QVQLVESGGGLVQAGGSLRLSCAASGNIFFSNAMGWYRQAPGKERELVASISQSGGSTYYADSVKGRFTISRDNAKNTVYLQMNSLKPEDTAVFYCAATQVRRGPAWGRDYWGQGTQVTVSS | low polyreactivity |
| QVQLVESGGGLVQAGGSLRLSCAASGSTFRTYTMGWYRQAPGKERELVAAGGGTYYADSVKGRFTISRDNAKNTVYLQMNSLKPEDTAVYYCAAGLPIHGLRGYEYDYWGQGTQVTVSS | low polyreactivity |
| QVQLVESGGGLVQAGGSLRLSCAAYGLTFLSNAMGWYRPAPGKEREFVAAITKSGGRTYYADSVKGRFTISRDNAKNTVYFQMNSLKPEDTSVYYCAASGTSPRSTWYNSWGQGTQVTVSS | high polyreactivity |
| QVQLVESGGGLVQAGGSLRLSCAASGIIFARNTMGWYRQAPGKERELVAAISTRGTTSYYADSVKGRFTISRDNAKYTVYLQMNSLKPEDTAVYYCAAVRVHTDRYNYWGQGTQVTVSS | high polyreactivity |
| QVLLQESGGLVQAGCSLRMSCAESGSISTALSMGWYRQAPGKERELVATISDGASTNYADSVKGRFTISRVNAKNTLYLQMNSLKPEDTEVYYCAAQSQYRPDHRYWGQGTKVTVSS | high polyreactivity |
| QVQLVESGGGLVQAGGSLRLSCAASGRILFSYAMGWYRQAPGKERELVATISSGGRTNYADSVKGRFTISRDNAKNTVYLQMNSLKPEDTAVYYCNTEYLVWYPYDYWGQGTQVTVSS | low polyreactivity |
| QVPLVESVGGLVQAGGSLRLSCAASGSTFLSNAMGWYRQAPGKERELVASINWIGGSTRYADSVKGRFTISRDNAKNTVYLQMNSLKPEDTAVYYCASRRRWGGHGAFLYYYWGQGTQVTVSS | high polyreactivity |
| QDQLVESGGGLVQAGGSLRLSCAASGNTFYVNVMGWYRQPPGKVREFVAAISTRGVSTSYADSVKGRFTISRDIAMNTVYLQMNSLKPEDTAVYYCAASFRRPEPKGTTYGYWGQGTQVTVSS | high polyreactivity |
| QVQLVESGGGLVQAGGSLRLSCAASGSTFGYYTMGWYRQAPGKERELVAAITGGGTTYYADSVKGRFTISRDNAKNTVYLQMNSLKPEDYAVYYCAAQARYYWGTTYEYWGQGTQVTVSS | high polyreactivity |
| QVQLVESGGGLVQAGGSLRLSCAASGFTFSGYAMGWYRQAPGKERELVAAISTSGGNTYYADSVKGRFTISRDNAKNTVYLQMNSLKPEDTAVYYCAADDWPWGDAGVDYWGQGTLVTVSS | low polyreactivity |
| QVQLVESGGGLVQAGGSLRLSCAASGRTFWGYAMGWYRQAPGKERELVAAISWSGTSTYYADSVKGRFTISRDNAKNTVYLQMNRLKPEDSAVYYCARAVNDWSRKYNYWGQGTLVTVSS | high polyreactivity |
| QVQLVESGGGLVQAGGSLRLSCAASGRIFYGYAMGWYRQAPGKERELVASISRRGSSTYYADSVKGRFTISRDNAKNTVYLQMNSLKPEDTAVYYCAAGYYPFNYWGQGTQLTVSS | high polyreactivity |
| QVQLVDSGRGLFQAGGSLRLSCAASGRTSSSNVMGWYRQAPGKERELVASINEGGNTYYADSVKGRFTISRDNATNTVYLQMNSLKPEDTAVYYCATEESGYSSWYGYGYSYDYWGQGTQVTVSS | low polyreactivity |
| QVQLVESGGGLVQAGGSLRLSCAASGRTFEGYAMGWYRQAPGKERELVAAISNSGGSTYYADSVKGRFTIARDNAKNTVYLQMNSLKPEDTAVYYCAALSRIPRYGYWGQGTQVTVSA | high polyreactivity |
| QVQLVESGGGLVQAGGSLRLSCAASGINFVGYAMGWDRQAPGKERELVAAISTSSRTYYADSVKGRFTISRDNAKNTVYIQMNSLKPEDTAVYYCNARGTRWYYRHDYWGQGTQVTVSS | high polyreactivity |
| QVQLVESGGGLVQAGGSLRLSCAASGRTFYFYAMGWYRQAPGKERELVADIRGITGSTYYADSVKGRFTISRDNAKNTVYLQMNSLKPEDTAVYYCAADQYLGRAWRGRGYYWGQGTQVTVSS | high polyreactivity |
| QVQLVESGGGLVQAGGSLRLSCAASGRIFKINAMGWSRQAPGKERDLVATISYSAGRTYYADSEKGRFTISRDSAKNTVYLQMNSLKPEDTAVYYCAARISSYWPYSLLDYWGQGTQVTVSS | high polyreactivity |
| QVQLVESGGGLVQAGGSLRLSCAASGSIIFLYAMGWYRQAPGKERELVASISTSGTTITYYADSVKGRFTISRDNAQNTGYLQMNSLKPEDTAVYYCAAEAYGNRDYWGQGTQVTVSS | low polyreactivity |
| QVQLVESGGGLVQAGGSLRLSCAASGRIVPYAMGWYRQAPGKERELVARINFNGGSTYYADSVKGRFTISRDNAKNTVYLQMNSLKPEDTAVYDCAARVYRYRYSKYDYWGQGTQVTVSS | high polyreactivity |
